Earlier results, collected in patent publication US20110110932A1, “COMBINATION TREATMENT FOR OCULAR DISEASES” (OPHTHOTECH CORP., priority 2009, published 2011).
Like-named read-outs stand apart in the source and are kept apart here.

How the values were obtained:
[1] = tested on: choroidal neovascularization (CNV); conditions: rabbits, CNV induced by VEGF/bFGF pellets
[2] = tested on: choroidal neovascularization (CNV); conditions: cynomolgus monkeys, laser induced CNV
[3] = biological target: α5β1 integrin (Homo sapiens, UniProt P05556+P08648)
Chain of α5β1 integrin (P08648 42-894 limits assumed): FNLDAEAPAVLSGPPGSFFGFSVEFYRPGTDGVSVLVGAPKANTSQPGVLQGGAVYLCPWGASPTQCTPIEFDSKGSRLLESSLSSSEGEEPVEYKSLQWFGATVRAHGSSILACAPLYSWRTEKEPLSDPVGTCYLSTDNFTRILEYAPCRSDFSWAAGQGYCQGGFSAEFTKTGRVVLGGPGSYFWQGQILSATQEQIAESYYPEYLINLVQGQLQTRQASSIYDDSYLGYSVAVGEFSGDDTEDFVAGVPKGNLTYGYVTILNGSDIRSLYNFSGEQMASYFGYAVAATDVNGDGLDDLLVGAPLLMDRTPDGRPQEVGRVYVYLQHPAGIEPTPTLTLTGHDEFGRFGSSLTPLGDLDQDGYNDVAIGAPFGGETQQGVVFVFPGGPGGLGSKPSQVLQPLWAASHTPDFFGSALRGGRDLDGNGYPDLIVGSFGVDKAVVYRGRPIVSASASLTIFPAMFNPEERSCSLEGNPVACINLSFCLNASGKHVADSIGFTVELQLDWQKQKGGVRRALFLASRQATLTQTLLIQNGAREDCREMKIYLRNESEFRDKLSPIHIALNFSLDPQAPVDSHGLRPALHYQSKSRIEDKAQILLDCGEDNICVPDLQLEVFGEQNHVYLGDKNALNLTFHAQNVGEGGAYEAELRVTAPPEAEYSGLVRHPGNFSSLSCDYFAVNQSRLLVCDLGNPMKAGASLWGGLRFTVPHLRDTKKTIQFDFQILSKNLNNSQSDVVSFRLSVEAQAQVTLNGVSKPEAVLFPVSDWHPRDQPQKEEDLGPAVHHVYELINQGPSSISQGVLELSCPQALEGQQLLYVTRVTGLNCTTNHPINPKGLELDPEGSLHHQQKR
Chain of α5β1 integrin (P08648 895-1049 limits assumed): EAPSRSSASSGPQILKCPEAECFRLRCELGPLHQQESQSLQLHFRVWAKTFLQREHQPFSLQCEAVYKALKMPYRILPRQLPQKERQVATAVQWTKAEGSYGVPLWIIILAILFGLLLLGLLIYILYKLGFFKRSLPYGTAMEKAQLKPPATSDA
Chain of α5β1 integrin (P05556 21-798): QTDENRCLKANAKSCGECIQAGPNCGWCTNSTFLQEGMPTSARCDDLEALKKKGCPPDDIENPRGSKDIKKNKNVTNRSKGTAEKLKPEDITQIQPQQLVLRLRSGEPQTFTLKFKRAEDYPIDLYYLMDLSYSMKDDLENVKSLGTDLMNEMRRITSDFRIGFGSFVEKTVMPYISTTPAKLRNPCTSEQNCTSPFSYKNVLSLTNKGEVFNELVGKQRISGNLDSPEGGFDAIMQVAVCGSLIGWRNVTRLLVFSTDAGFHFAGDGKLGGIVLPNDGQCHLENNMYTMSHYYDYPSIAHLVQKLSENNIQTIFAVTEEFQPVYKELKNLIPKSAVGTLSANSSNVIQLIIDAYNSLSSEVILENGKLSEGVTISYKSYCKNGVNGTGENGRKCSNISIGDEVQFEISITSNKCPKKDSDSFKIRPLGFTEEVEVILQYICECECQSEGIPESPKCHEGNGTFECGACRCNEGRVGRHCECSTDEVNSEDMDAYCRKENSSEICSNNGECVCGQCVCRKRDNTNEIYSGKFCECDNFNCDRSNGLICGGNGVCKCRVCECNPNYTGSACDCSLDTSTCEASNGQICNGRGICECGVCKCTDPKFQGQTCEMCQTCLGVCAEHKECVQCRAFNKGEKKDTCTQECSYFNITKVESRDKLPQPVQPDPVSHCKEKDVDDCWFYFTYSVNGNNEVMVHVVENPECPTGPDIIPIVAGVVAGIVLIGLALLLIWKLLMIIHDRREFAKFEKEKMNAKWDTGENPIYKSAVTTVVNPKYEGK

B1: F200: Fab fragment of volociximab; heavy chain SEQ ID NO: 6, light chain same as M200 (antibody, chains of the INN, looked up, V domains shown)
VH: QVQLKESGPGLVAPSQSLSITCTISGFSLTDYGVHWVRQPPGKGLEWLVVIWSDGSSTYNSALKSRMTIRKDNSKSQVFLIMNSLQTDDSAMYYCARHGTYYGMTTTGDALDYWGQGTSVTVSS
VL: QIVLTQSPAIMSASLGERVTMTCTASSSVSSNYLHWYQQKPGSAPNLWIYSTSNLASGVPARFSGSGSGTSYSLTISSMEAEDAATYYCHQYLRSPPTFGGGTKLEIK
modifications: Fab
In the case of B1, the anti-angiogenic activity [1] is listed as “significant anti-angiogenic activity”, the anti-angiogenic activity [2] is listed as “significant anti-angiogenic activity” and the “α5β1 integrin antagonistic activity” value [3] is listed as “shown to have α5β1 integrin antagonistic activity”.
